In data set [1] the target is T1, Lsr2 (Streptomyces venezuelae ATCC 10712) (UniProt F2R951).
T1 sequence: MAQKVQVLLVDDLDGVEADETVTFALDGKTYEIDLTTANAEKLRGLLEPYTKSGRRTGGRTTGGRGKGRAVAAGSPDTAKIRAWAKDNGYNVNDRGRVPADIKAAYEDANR
The data set is described as follows: EMSA. As to conditions: 10 mM Tris pH 7.8, 5 mM MgCl2, 60 mM KCl, 10% glycerol; Lsr2 (EMSA, AFM): room temperature 10 min then ice 30 min; CmlR: 30 C 30 min. In general terms: Mobility shift assays separate free from complexed probe on a gel.

The target in data set [2] is T2, CmlR (Streptomyces venezuelae ATCC 10712) (UniProt F2RB72).
T2 sequence: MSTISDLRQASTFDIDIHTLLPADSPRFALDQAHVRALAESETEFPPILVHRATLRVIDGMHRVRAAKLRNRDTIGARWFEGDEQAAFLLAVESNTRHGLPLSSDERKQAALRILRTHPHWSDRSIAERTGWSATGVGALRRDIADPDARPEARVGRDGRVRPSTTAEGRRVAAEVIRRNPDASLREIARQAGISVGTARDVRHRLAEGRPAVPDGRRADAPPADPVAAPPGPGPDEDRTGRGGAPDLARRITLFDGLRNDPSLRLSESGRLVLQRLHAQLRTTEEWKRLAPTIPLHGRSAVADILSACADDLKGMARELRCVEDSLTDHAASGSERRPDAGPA
Put plainly: EMSA. The note with it: 10 mM Tris pH 7.8, 5 mM MgCl2, 60 mM KCl, 10% glycerol; Lsr2 (EMSA, AFM): room temperature 10 min then ice 30 min; CmlR: 30 C 30 min.

“GGAGACGTTCAGGATCGCGGAACTCTGCTCAGTGGATTTCCGCAGCAGTTTGACCGCTTCCCGGCAGCAGTTCAGCACGGCGAAGAAATTGATGTCGAATATCTTCCGGGAAACCTCGTCCGGGGTCGTCATGAAATGGTTCATCGACGA (double strand) [sven0926 probe]”: in data set [1], the binding result was “binds”.
Consider “GGATTTTCCTGAACGCCGGAGTCGGGTGACCGATAACCGGACACTTTCCGGATTTCGTGTCCGGATTGAGCCCGGTTATACGTCGAATGCCTCAAGT (double strand) [sven0904-0905 probe]”, for which, in data set [1], the binding entry was “binds”.
On to “GGCCCACCCCTTCCTTCACTTCCCTTTGCGGGCTCTTCCCTTTGCGGGCTCGGCCCTTCCCGGGTCCGGCGTCTCGAAGTCTGTGGATATCGGTCGCGGGCCGCAAGGGTGTGCAGATCACCACCCCGTGCAACTGAAGGAACCGGACAGTTGAACAGGGCGGTGAACCGCGCGGACTGAACGACCTTGCGTGGGCCGGGGGCGTATGACATAAAAATCCAGGCGTCGGCCCGGAGCACGACTCGGCCGGCGACGCGATCTGTTCTGTCT (double strand) [sven0924-0925 promoter probe]”, for which the binding entry in data set [2] is “binds”.
As to “GGTGGATTCCGTAGTCATGGCGCGGACCTTACAGCGATGATCCACGATCATCCGACCGGCTTGTCTATTTTCAGCCAGTCCGACTCGCACCCGGCTCGAACGAAGCCGTGGCCCGAGCGTCACGGAAAGCGTGACACATGTCAGCGCGGCGCCTTTTTCCCTGTTCCGCCGCAATTCCCCGGCACATGATTACGGCCGGAAGCGAAACACATCACCAGGACGTTGTTTCTCGAATTCTCG (double strand) [sven5133 promoter probe]”, the binding result in data set [2] is on record as “no binding”.

For the origin of these results see paper PMC8406272.
